In PMC5711770, “Acetylome of Acinetobacter baumannii SK17 Reveals a Highly-Conserved Modification of Histone-Like Protein HU” (Frontiers in Molecular Biosciences, 2017):

Key:
[1] = biological target: the molecule itself; assay: SEC; analytical size-exclusion chromatography, Superdex 75 10/300 GL, PBS, 0.5 ml/min; size judged against ovalbumin (44 kDa) and myoglobin (17 kDa) markers
[2] = biological target: HU (wt*, without His-tag) (Acinetobacter baumannii SK17, UniProt A0ABX6CHP0); assay: BLI; BLI: 30 mM Tris pH 7.5, 100 mM NaCl, 0.02% Tween20, 0.5 mg/ml BSA, 25°C; EMSA: same buffer, 37°C 1 h, 250 ng DNA in 10 µl, 1% agarose in TAE; AFM: 10 mM HEPES pH 7.5, 4 mM MgCl2; settings: protein: recombinant; tags: none; N-terminal GA remains after TEV cleavage; chain copies: 2; label: 5'-biotin on strand 1; (only one strand printed)
[3] = biological target: HU (wt, C-terminal His-tag) (Acinetobacter baumannii SK17, UniProt A0ABX6CHP0); assay: as above; settings: protein: recombinant; chain copies: 2; label: 5'-biotin on strand 1; (only one strand printed)
[4] = biological target: HU(K13ac) (C-terminal His-tag) (Acinetobacter baumannii SK17, UniProt A0ABX6CHP0, K13ac); assay: BLI; kon and koff several-fold lower than wt; BLI: 30 mM Tris pH 7.5, 100 mM NaCl, 0.02% Tween20, 0.5 mg/ml BSA, 25°C; EMSA: same buffer, 37°C 1 h, 250 ng DNA in 10 µl, 1% agarose in TAE; AFM: 10 mM HEPES pH 7.5, 4 mM MgCl2; settings: protein: recombinant; chain copies: 2; label: 5'-biotin on strand 1; (only one strand printed)

B1: wild-type HU with a C-terminal His-tag (Acinetobacter baumannii SK17 histone-like DNA-binding protein HU) (natural protein, UniProt A0ABX6CHP0 1-90, looked up)
chain: MNKSELIDAIAEKGGVSKTDAGKALDATIASITEALKKGDTVTLVGFGTFSVKERAARTGRNPKTGEELQIKATKVPSFKAGKGLKDSVA
notes: cloned whole between NdeI and XhoI of pET-21a(+); also called wt HU; wt; source: E. coli BL21(DE3), purified (Ni-NTA, cation-exchange chromatography); not shown: His6, C-terminal, kept
- stoichiometry N [1]: 2

B2: HU(K13ac), HU acetylated at Lys13, with a C-terminal His-tag (natural protein, Acinetobacter baumannii SK17, UniProt A0ABX6CHP0 1-90, looked up)
chain: B1 chain
modifications: acetyllysine at residue 13
notes: the codon of Lys13 replaced by an amber codon for site-specific incorporation of acetyllysine; also called Lys13-acetylated HU; not shown: His6, C-terminal, kept
- stoichiometry N [1]: 2

B3: biotin-labeled dsDNA (BLI) (dsDNA)
DNA 1: ATTAATATTTTCTTAAACTAATTTAAAAT
DNA 2: ATTTTAAATTAGTTTAAGAAAATATTAAT
- Kd [2]: 276 ± 143 nM
- Kd [3]: 349 ± 352 nM
- Kd [4]: 184 ± 9.3 nM
